The values that follow come from patent publication US20180028641A1 (GlaxoSmithKline, published 2018).

For this experiment, the target named is T1, human transferrin hTF (Sigma T-4132) (human, UniProt P02787 20-698).
T1 construct: Bought protein
In words: gel filtration (Superdex 200 PC 3.2/30) of each protein and of the mixture, fractions analysed by SDS-PAGE. A general note: SEC sorts molecules by how far they enter the pores of the column.

T1 sequence (P02787 20-698 limits assumed): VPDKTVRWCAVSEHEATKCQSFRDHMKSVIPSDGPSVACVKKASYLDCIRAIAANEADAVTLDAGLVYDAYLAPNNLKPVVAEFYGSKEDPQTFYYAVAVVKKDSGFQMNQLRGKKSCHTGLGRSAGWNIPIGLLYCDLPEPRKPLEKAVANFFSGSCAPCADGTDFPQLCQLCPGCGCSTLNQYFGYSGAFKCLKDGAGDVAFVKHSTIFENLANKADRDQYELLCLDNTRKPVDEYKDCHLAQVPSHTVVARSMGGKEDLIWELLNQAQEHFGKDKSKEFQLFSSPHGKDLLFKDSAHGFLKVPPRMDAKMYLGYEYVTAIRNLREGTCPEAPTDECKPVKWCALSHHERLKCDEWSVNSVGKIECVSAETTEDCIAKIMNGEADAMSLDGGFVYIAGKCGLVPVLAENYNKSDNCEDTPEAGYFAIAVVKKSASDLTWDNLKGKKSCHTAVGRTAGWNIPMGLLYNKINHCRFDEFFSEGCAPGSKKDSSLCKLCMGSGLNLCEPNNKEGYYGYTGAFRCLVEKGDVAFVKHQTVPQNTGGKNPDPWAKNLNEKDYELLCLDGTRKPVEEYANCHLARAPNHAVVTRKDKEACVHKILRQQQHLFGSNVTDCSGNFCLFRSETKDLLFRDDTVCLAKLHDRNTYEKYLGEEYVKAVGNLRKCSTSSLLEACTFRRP

B1: recombinant NMB1870 (strain MC58, variant 1), His-tag fusion expressed in E. coli without the leader peptide (other)
chain: CSSGGGGVAADIGAGLADALTAPLDHKDKGLQSLTLDQSVRKNEKLKLAAQGAEKTYGNGDSLNTGKLKNDKVSRFDFIRQIEVDGQLITLESGEFQVYKQSHSALTAFQTEQIQDSEHSGKMVAKRQFRIGDIAGEHTSFDKLPEGGRATYRGTAFGSDDAGGKLTYTIDFAAKQGNGKIEHLKSPELNVDLAAADIKPDGKRHAVISGSVLYNQAEKGSYSLGIFGGKAQEVAGSAEVKTVNGIRHIGLAAKQ
notes: also called purified NMB1870; the recombinant protein; not shown: His-tag (pET-21b+ vector)
For the molecule B1, the binding result is reported as “no binding (tested: 7 µM)”.
